Assay: protease stability score; higher = more stable; yeast display proteolysis, trypsin and chymotrypsin;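 note: log10 excess protease needed over predicted unfolded state with 0 meaning unfolded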

Sequence	protease stability score
DHTELETLARRMVDAMRTGDPDKLAELADPNVKVTYGDKSVHGHEQFTKQMKEFVDQYDHVRVERLKIEGDKVHADLNAEHNGRSSRFIMLITVKNGRVKHLKFKNR	0.472
DREEQKKVAKHMDDLVRTGDPREATDLIDPNAKADVGDKQYHGREQLHKLFKEQHERADHADLKSFDAHNGKVEVNVIIQVNGRRHRVIYHADADNGRVKFVSVRSS	-0.164
DDRDAERLVELWKTGDPDKFANHMRDDVRVQIGDKSVRGRDEAHKILERLRQQIDHWEIKDYEVHGERVIIHAVATVNGRHLNFVIVVQMHNGRIQSVQYKVTSEDDQHRIKKLLD	0.326
DHDLVKHLESFIKNLQDGDDDKLAKYADPNAHIEVGDKVVSGRKQLQEEVRRQRKRMRISLDVKDVKAHNGQADVTFDQRVEVNGRPWQNRYTVIFFLHNGTLREARFDIPEREQRKLES	0.189
EDQVIRMVKELWKALRKNNPEKFKDLADKNARFEYGDKHVRGRENMQERMEQQVRDQEVDMRVERVEDRGDHVDVKFEKVVNHNGTPSSHSMTAVYVAENGRLKNVRVKETK	-0.103
EEHDERTMHRLVETNDWETISRNADKDVKFQVGNKSYHGKEEFTEVLRKITKRADHIEYRSFNSHNGRIDVDYVFVVNGKEVKVFVQIQVHNGRIKHMRMRATNPDQQQELVDQLS	1.44
DDHEQRSLQELVKKNDEEKFAEQADKDVKVDVGDSRIHGREEWRKFVKRLKDRADHIEIHSVKADGEKLEVHREMTVDGRRVVYYVRYEVHNGRIKSISLQARTEDDQRKLQHVLS	0.919
DEERQHRVAKSLVDILKDGNPRKMKELMDKDATVRVGDKNIRGRKNIATFWTDVRRRIDHVEIKHVDVRGDKIDMNINFDVNGRHVHYTINARVRNGKLTSMHLDPDNLEHLKE	0.591
DEEENKHLISLFERNNWRDMAEMADKDVKAQYGDSTIHGREQVHEVLTQLQKRADHLEIKDYNVDGNKVVVDQVINVNGVTIRAKVLMEVHNGRIKQMHVQATDNEEKKKLDKVLS	-0.466
DEDLFRRLSELMHAVTNGDEEELVKQADKDARIQYGDKVFHGMDEAARELVRQQKEIRQSWEIKSWDHQGDKVRVTIKNSQDHDGRPHSNRIDVEVKQRNGKVTTARFQTHP	0.148
EEDDQRRLQEWLSQGNFEHLAQNADKDAKASVGEYRVHGREQIKRFLERMQDRIDKVHYETVHFHNGVLRATFRFTVNGKQVVMQMRIEARGDKIKYIEMQARDEDNLKKWKELES	1.03
DERDMTKVFDALLKNDEDTVKDQLDEDVQVTVGDKKVHGREQAQETWERLLQRADHINMKSFTTRGDRAVAIVVARVNGHKLEWEYRFKASNGKVEHARIDFRDDDEERKFENALR	0.024
DEHAHRQFKHYLDALKENNEEDLKKQMDKDAEAKYGNQELHGRDDAARHLKRELEEIRVDITEYRIRNQGNNIEAHVRFVVKHNGQPSKMTVLITASADENHMRTIEFDEKK	0.248
DEELMKTVHDLYSNLRQNDEHKFDELVDPNASLRVGDKRLHGREQIHDELKRQNEEIHVSRQMKEMTVHNGRADVNIRASETHNGQPDEFTIDATFELHNGRFISIDIKKRP	-0.529
DEELQENAEHLVKAMNKGDREEISRQVDKNASVEIGDQELHGREDIRRFFHEVHEEMRFHIEIKTVDVKGNEVTVHAEAENDDNGRPQTNEVDIDIKVKNGKITSMRIQYNS	-0.539
DTERNAKEAVTRLKKVFTHNDPDKIASMFDENAHIEVGDKRYHGHEEVKRWADDMRNQYDHWDADVRSIDVHGDKVHVEAVITAERNGKTLERTFVVIFDRDNGQLRIHELRDQ	0.926
DEDDLRRIIKEFQKALKTGDTDEIRRQIDPNAHARYGDKEVHGREQLLSRLDELMNNVDHMQIDDLTFRGDKATVDFVMNHNGHERRHILHMVVHNGTIKSAHLDDS	1.01
DDDAQNTLSDRINLIKQGNKEEVDKQADPNATVQVGDKKVQGREEIRRWIKHVKDQLNVQIEIKHVEAQGNKVRIDASFRARINGKPVRIRFILIADMHNGRFKRVVMHLDEDQQRKYEK	0.943
DEEENTKVMERFLDAVKRGNEDDLHELADKDVRLTVGDKEYHGREEIMEYLHEWRKKVDHIDFDSYTVRGNTVEVHFQVHDNGQNEDVVVQVEVHNGRVKTVRYRHK	1.72
DEKQMEQVNKNMETGDWDKLQEQADEDVRLVVGEREFHGREQFSEFAKQAKRMVDDNTIHRIDLQGEKVKIKFVIKHNGRTVDVTVVMEVHNGRIKRYVLRARDEDAEDIIRKMLS	0.902
DEEQAHRLNEVLKTGDFERLKDQADPNVRIEVGEKRYHGREQFQKFMTIVQETVDDVHVRSIKVRGDTVNVHMVLNVNGVKAEFIVEAHVDDGRVKEIRFRATDDEQKKNWRKIVQ	1.11
DEQAKEVAEHWWEAVKKNDPTQAKENADKDVRARVGDQEIHGREDLATWLDQQKREMRIDLQIDSVSVSNGTLDIKAKMQVEDNGTPEHNTVEASMVVHNGRVKQFHIRVTK	0.96
DEETKAHKWAEKFQRALKDGDPKKMENLMDKNVKAQYGDKTIHGDEEANSWVRRMKHQVDHVSATITRVEADNGKVIVRMTVVVDHNGREQRYEVNLEAKDHNGHIHLTRLKVG	0.262
DEEKQEQVLRDQNTNDPDQMERLLDENVKVDVGDEEIHGRETVVKFLRHFIDRIDHVDVRELSVRNGRFHIEVVYTFDGRRMRYILHMEVKDGHVKYQQIQATSDEDKKRLDEMES	2.38
DDEETAKRHQREWQKNLEFNDEKSIQELVDPNARWQIGDKEVHGREEWARQLRRLREDVDHVQIHVKHVEVSNGQYNLNILIKYNINGETHKIRLVYVAQKNNGRVLVRSVEHK	0.655

Sequence	protease stability score
DEESKKQIDNWLKAVQQGDPDQLVKNVDKDVTVEYGDKSIHGRESLMKTLEDKKKQWRLEFKSVDVDVHGDKARLDVDVVLQINGQPFRHTRTIHVHLHNGRVKHMRFRFDEQQQRDMDR	1.12
DETKQAERVAETEKRIWERGDPDKLNEMFDPNVRIDVGDKEVNGREKLKEYIERILTQVDHVRLNFTSISVHNGSVELKYTLVREDNGRRRRDTFVIHMELHNGQARVTSVRRG	0.405
DEERNEKAAHEMLKVFQRGDPDQFRDLIDPNARANVGDKKYHGRENLTHMFKHFVHRADHLEMQHVKVSGETVEIHIRAKINGKTIDFTIRIIVDNGKAREINFDPDMLKRMRG	1.23
DETATEAAQRMMDNWRTNSPEDYAKLADKNVEVRVGDKTYTGRDELRSRLQRKREEQHIDLRTYHFRVNGDEVTVRARYIENHNGRPQHKVVRFVFRLHNGRVKEIERHDDS	0.22
DEDASKELQRLARENDFKRIAELADENASAQIGDNVWHGREKILTNLKRMQDQVDHQRIHSIRTHGNKLRVTVRMVVNGRDFTFRFVIEVENGRVVSIDIKATSEKDKKKMNEVIG	-0.158
NEEQAKRLAEKWIRAVENGNVDELRKLGKPDMEVVAVNEKAKGVDTVHKYMKKFTDRGVELKVDRAKNTGGRVRYTVRARYGGQELTAEVVIDIKDGKVDKVEFRVDERQAQYVLRG	0.812
DESLHRWYERLQEALEHGDEDRLRKNADKDVQVDVGDKRVHGSEHYAHELVRESREMDFHIHRMEVSVTGNRITVDYVYDREHNGTPQSKRVQERYQAHNGKLKRASVQETD	-0.093
DEDNLRDAMEVYHQNDPDKAVKMADEDVKVVVGDRKWNGREDFEEAMRTFNQRVDHIEYKSMDVSNGQISIDVVINVDGQNARFILNIEIHNGKIKSLRYQWRNENVRQVLTEIFQ	0.795
EEKLEEQVEELLKNLDTGDENRARQLADPNVRARVGDKEYHGMEQFIKDQMDQRRNARIEVKDLRSEHHGDKITVDLSYKAQHNGRPTTVQREVTFHAHNGKFRQMKIEQSG	-0.521
DEEQLKTIREWMNQVQRGNFDQWAKNLDKNAHVDYGDRSVTGREEWQRLMRRQKREIRMQVKVDHVSAQGENIEVQARVRFTHNGQPDETNNKITAKVHNGRVKHMRVEEDK	0.248
DDQQARDIAKELVKALQTGDPERFVELADPNARVEIGDKTYHGHDRMSEMIKTWHRDVDHIRIQDYRAKGDKIEIQFVLDINGKQNRLVMVVQVSNGRITVVFVRSG	1.35
DDEAVRAAKRAFEAWIENDPEKMKHQVDENAHLHYGDKEVHGREDANRQVHEDERQMRIELRSVTFQHHNGRAKIDMKYVLDHNGKPETRKFDATAEARNGKITKMSIDVHQ	-0.077
DEEIEDMIRKLIHAIRSGDEKKIKDNFDKDVDVDVGDKTLHGREHLTKRIAETRRQLKVRITSLHVHVRGEQVRVQVTMERTVNGRPQRHHNVFELQVHNGRVKRVSVKSDG	1.08
DEEKVKNHILEALNAMMTGDPDKVRRMVDKDARLRIGEKVFHGREEVSKAAEEFREQFDHITITDYRVEPGHARVHAVINVNGKNVEITIKATATNGKIQRIVLDPRAVERLKS	0.926
DERHEAEKFAQHWMEVWKKGNHTEISKLIDENARVEVGDQKYHGRSQVKTRARQEVERADHVDYTIRSVKVTGNRIDINAQQVFRVNGTEDDQTRKIVLRRQGDKVVVQSIQAG	-0.159
EESLIRLATLFMRAMETGDPKQANDLVDPNARFKIGDSVINGRERFNEWLKDLKEEMSVHYRVEHMHAEGDRVEVDFVVVYNVDGRPQRMRVKLEADLSNGRMRNVTLRFPSEEEKKIKK	0.525
DETEIRLFHQFLRAIETNDEERAQQLADEDARYRYGNKEIDGMTQFQEDMDDKHKEARYSYSIDSVHDEPNRVVVEARAMVKINGKPTTYQVELHAHFHNGRMKKFTASVPEETLQSIRS	0.054
DDQDRSHAVRLMRTGNFKEWADQADKDVSMQVGDKEVRGREQVIKMLKRLQEAADHVQVKSIHTQGEKMKADVTININGDQIRVIIEVVVEGDKLKELRIQFTSEHDEKIMHEQLQ	1.14
DHKAVEMVEQMWKNLNEGDFKKFTRLIDKDVKYVYGDRRVEGREELVNRFHRKMREMRFQIVRMSLTDHGDKVVVNYTVQFNKNGRPDRKVQRLLVKVENGTIKELRVQEHQ	1.62
DEHRRAEEAAKRAMEIWKTGNERDAEDLADKNVSIDYGDKKYHGRHQIIKFFQELREDVDHVDLKVNDMDVKPGRAVANLRYVLNNDGRNRHDQHRMTLKLEGDKVYLKKIQQG	-0.108
DEEEIEDVARKLNTGNKDDMRELADKDVKAQVGDKEVHGRENLVRIMKRLKDQADHIKVDEVHVQGNRIQVRFQMNINGTTFDVSFVAKVSNGHIKYFSLRARDPRLDEKILRILK	0.493
DSRSNAQRVLDAINQLVHGNPQEFNKNADPNVRATYGDKEVHGREEVKKHVDSLMKKVDHVQVKNYQITGDKARVQVVLDINGRTRHVQINAHAKNGRIKHVEIQQQ	0.895
DEEAHKVAESFIKAYSNGDEDKLKKNVDPNARIQIGDKYIHGMDTFVKEQRKRREQSRYHMSITHVDVQGNEVDVRFKAESEHDGQPHTNRMSVNFTFHNGNIKNVDIQYEP	-0.307
DSDAARELVKALNTGNEEELKHMVDPNARARVGDKRLHGRDELFRFWHKLKRHVDHRRVNKVEIHGEKAHVDVQLNVDGRNIRVNIVMEAHNGRVKEFTIEFRDRDARKEFRNQVD	1.16
DERERERQLRDIFRVIQRGDQDRWKEQADENARIHVGDTRVHGQEEARKWFKELVDRADHFSVKRIEVNGDDMILTFEVEFNGKRHTVTIDFNVQNGRIQNINVDPEAERRIRK	0.048

Source: the NTF2 design screens of Basanta et al. (2020)
